Test results: paper PMC3722578 (FEBS Open Bio, 2013)

Molecular target: the molecule itself
Assay: SEC

B1: PKD1 domain from Vibrio cholerae metalloprotease PrtV (residues Glu755-Asn839) (domain or fragment)
chain: GAMENIAPVARFELKVEGLSVMSQNTSSDSDGNIVSYLWDFGNGQTSTEAAPTWSYTKAGSYSVTLTVTDDKGDSDTHQQTIKVDTPN
stoichiometry N: 2
